Data published in patent US20220127585A1.
Where no end group is shown, it is not given here. [ ]: non-standard residue; d: D form. code O = not defined here; Dab = NCC[C@H](N)C(=O)O

T1: B-Raf kinase, P15056
T1 chain: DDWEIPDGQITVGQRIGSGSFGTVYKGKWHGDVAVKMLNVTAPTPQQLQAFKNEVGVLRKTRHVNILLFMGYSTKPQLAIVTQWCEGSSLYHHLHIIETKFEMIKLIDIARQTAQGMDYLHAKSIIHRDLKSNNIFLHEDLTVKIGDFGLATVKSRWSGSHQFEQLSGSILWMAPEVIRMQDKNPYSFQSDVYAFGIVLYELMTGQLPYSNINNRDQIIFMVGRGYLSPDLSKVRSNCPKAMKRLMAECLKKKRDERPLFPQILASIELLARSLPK


Biological target: T1, B-Raf kinase, P15056
Test: ITC

ΔH [kJ/mol]	Binder
-34.8	GVLRKARHVNILLFMGYST (modifications not checked) [SEQ ID NO: 8]

Biological target: T1, B-Raf kinase, P15056
Test: binding affinity with BRAF, Table 2 (method not given; the Methods describe fluorescence titration)

Binder	Kd [nM]
V[Dab]RKKRHVNELLDMG [SEQ ID NO: 54 (VDab…)]	370
VCRKTRHVNILLCM (modifications not checked) [SEQ ID NO: 33 (…)]	360

Further lines, results first:

Kd [nM]	Binder
5750	VLRKTRHVNILLFM (modifications not checked) [SEQ ID NO: 16 (…)]
1890	VLRKKRHVNELLFMG (modifications not checked) [SEQ ID NO: 53 (…)]

Biological target: T1, B-Raf kinase, P15056
Test: binding affinity, Table 3 (method not given; the Methods describe fluorescence titration)

Binder	Kd [nM]
KRHVAELLFMG (modifications not checked) [SEQ ID NO: 47 (…)]	590
KRHPAELLFMG (modifications not checked) [SEQ ID NO: 61 (…)]	160
VLRKKRHVAELLFMG (modifications not checked) [SEQ ID NO: 60 (VLRKKMe…)]	39
LRKTRHVNILLFMG (modifications not checked) [SEQ ID NO: 31 (…)]	1880

The next lines start with the values.

Kd [nM]	Binder
1890	VLRKKRHVNELLFMG (modifications not checked) [SEQ ID NO: 53 (…)]
170	VLRK[code O]RHVAELIFMG (reading uncertain) [SEQ ID NO: 58 (VLRKO…)]

Biological target: T1, B-Raf kinase, P15056
Test: Kd for the B-Raf dimer interface (FIG. 1), fluorescence titration

Kd [nM]	Binder
3840	GVLRKTRHVNILLFMGYST (modifications not checked) [SEQ ID NO: 1 (B-Raf residues 503-521, …)]
540	GVLLKTRHVNILLFMGYST (modifications not checked) [SEQ ID NO: 6]

Biological target: T1, B-Raf kinase, P15056
Test: intrinsic fluorescence titration (ITF) of B-Raf in solution

Binder	Kd [nM]
VLRKTAHVNILLFMG (modifications not checked) [SEQ ID NO: 24 (504-518 R509A, …)]	2400
VLRKTRHVNIALFMG (modifications not checked) [SEQ ID NO: 28 (504-518 L514A, …)]	1020
VLRKTRHVNILLAMG (modifications not checked) [SEQ ID NO: 29 (504-518 F516A, …)]	570
LRKKRHVNELLFMG (modifications not checked) [SEQ ID NO: 37 (cyclo 508-513 T508K, I513E, …)]	1890
VLRKTRAVNILLFMG (modifications not checked) [SEQ ID NO: 25 (504-518 H510A, …)]	2700
GVLRKTRHVNILLFMG (modifications not checked) [SEQ ID NO: 15 (503-518, …)]	1880
GVLRKTRHANILLFMGYST (modifications not checked) [SEQ ID NO: 10 (503-521 V511A, …)]	4750
GRINKGRHTFLLVVMTYSL (modifications not checked) [SEQ ID NO: 3 (scrambled, …)]	2960
GVARKTRHVNILLFMGYST (modifications not checked) [SEQ ID NO: 4 (503-521 L505A, …)]	3890
VARKTRHVNILLFMG (modifications not checked) [SEQ ID NO: 21 (504-518 L505A, …)]	450
GVLRKDRHVNILLFMGYST (modifications not checked) [SEQ ID NO: 7 (503-521 T508D, …)]	2200
VLAKTRHVNILLFMG (modifications not checked) [SEQ ID NO: 22 (504-518 R506A, …)]	360
LRKTRHVNILLFMG (modifications not checked) [SEQ ID NO: 31 (…)]	190

The remaining lines, values ahead:

Kd [nM]	Binder
550	LLKTRHVNILLFMG (modifications not checked) [SEQ ID NO: 32 (505-518 R506L, …)]
1090	GVLEKTRHVNILLFMGYST (modifications not checked) [SEQ ID NO: 5 (503-521 R506E, …)]
9800	GVLRKTRHVNIALFMGYST (modifications not checked) [SEQ ID NO: 11 (503-521 L514A, …)]
4100	GVLRKTRHVNILIFMGYST (modifications not checked) [SEQ ID NO: 12 (503-521 L515I, …)]
2690	VLRKTRHVNALLFMG (modifications not checked) [SEQ ID NO: 27 (504-518 I513A, …)]
540	VLRKTRHVNILLFAG (modifications not checked) [SEQ ID NO: 30 (504-518 M517A, …)]

Biological target: T1, B-Raf kinase, P15056
Test: intrinsic tryptophan fluorescence (ITF), column head 'Kd (ITF) (µM)'

Kd [nM]	Binder
50	TRHVNILLFMG (modifications not checked) [SEQ ID NO: 45 (…) with N-Cap N1]
84	TRHVNILLFMG (modifications not checked) [SEQ ID NO: 45 (…) with N-Cap N2]
